Source: US20220153796A1
Each block holds one binder with its values, some of them ahead of it.

Columns and labels:
HLA-B*44 (human) = assay: UV peptide exchange ELISA
HLA-B*08 (human) = assay: UV peptide exchange ELISA

B2: … (peptide)
peptide: EAAIRSVEL
peptide exchange yield (HLA-B*08 (human)): > 75%

B4: … (peptide)
peptide: SEIGKAVGF
peptide exchange yield (HLA-B*44 (human)): > 75%

B6: LPPKKFVL (peptide)
peptide: LPPKKFVL
peptide exchange yield (HLA-B*08 (human)): > 75%

B7: … (peptide)
peptide: EIRIRVVQM
peptide exchange yield (HLA-B*08 (human)): > 75%

B9: DEVNFLVY (peptide)
peptide: DEVNFLVY
peptide exchange yield (HLA-B*44 (human)): 10 to 20%

B10: … (peptide)
peptide: SEDDPILQI
peptide exchange yield (HLA-B*44 (human)): 50 to 75%

B11: … (peptide)
peptide: SEKGVIQVY
peptide exchange yield (HLA-B*44 (human)): 50 to 75%

B13: YMHKLLVL (peptide)
peptide: YMHKLLVL
peptide exchange yield (HLA-B*08 (human)): > 75%

B15: … (peptide)
peptide: DELFSIALY
peptide exchange yield (HLA-B*44 (human)): > 75%

B16: … (peptide)
peptide: ILLPRTVSL
peptide exchange yield (HLA-B*08 (human)): > 75%

B17: … (peptide)
peptide: MLKQKVEEL
peptide exchange yield (HLA-B*08 (human)): > 75%

B18: … (peptide)
peptide: GEVHPSEMI
peptide exchange yield (HLA-B*44 (human)): 50 to 75%

B19: … (peptide)
peptide: SEIEQEIGSL
peptide exchange yield (HLA-B*44 (human)): 50 to 75%

B21: … (peptide)
peptide: AEVGFVRFF
peptide exchange yield (HLA-B*44 (human)): > 75%

B25: … (peptide)
peptide: AEVPTGVII
peptide exchange yield (HLA-B*44 (human)): 50 to 75%

B28: … (peptide)
peptide: AIISRLVAL
peptide exchange yield (HLA-B*08 (human)): > 75%

B29: … (peptide)
peptide: GELALKKKI
peptide exchange yield (HLA-B*44 (human)): 20 to 50%

B32: LVKVKVLL (peptide)
peptide: LVKVKVLL
peptide exchange yield (HLA-B*08 (human)): > 75%

B37: … (peptide)
peptide: SDMVRFHLF
peptide exchange yield (HLA-B*44 (human)): 20 to 50%

B38: … (peptide)
peptide: VASPKHCVL
peptide exchange yield (HLA-B*08 (human)): 50 to 75%

B42: … (peptide)
peptide: HLLQKQTSI
peptide exchange yield (HLA-B*08 (human)): 50 to 75%

B44: … (peptide)
peptide: DAIQRKYSC
peptide exchange yield (HLA-B*08 (human)): 50 to 75%

B46: … (peptide)
peptide: ELKKKEYEEL
peptide exchange yield (HLA-B*08 (human)): > 75%

B47: … (peptide)
peptide: TEFPIIKMY
peptide exchange yield (HLA-B*44 (human)): 20 to 50%

B48: … (peptide)
peptide: EAMLRNKEL
peptide exchange yield (HLA-B*08 (human)): > 75%

B49: … (peptide)
peptide: ALKLRVAVL
peptide exchange yield (HLA-B*08 (human)): > 75%

B50: … (peptide)
peptide: MAQFKEISL
peptide exchange yield (HLA-B*08 (human)): > 75%

B53: … (peptide)
peptide: SENLFFASF
peptide exchange yield (HLA-B*44 (human)): > 75%

B54: … (peptide)
peptide: EEIERFFKL
peptide exchange yield (HLA-B*44 (human)): 50 to 75%

B55: ILKVKVGL (peptide)
peptide: ILKVKVGL
peptide exchange yield (HLA-B*08 (human)): > 75%

The next lines start with the values.

peptide exchange yield (HLA-B*44 (human)): 20 to 50%
B1: … (peptide)
peptide: AEEEIMKKI

peptide exchange yield (HLA-B*44 (human)): 20 to 50%
B3: YEDLSQKY (peptide)
peptide: YEDLSQKY

peptide exchange yield (HLA-B*44 (human)): > 75%
B5: … (peptide)
peptide: SEMNVNMKY

peptide exchange yield (HLA-B*44 (human)): 50 to 75%
B8: … (peptide)
peptide: QENSYQSRL

peptide exchange yield (HLA-B*44 (human)): 50 to 75%
B12: … (peptide)
peptide: SEIEDSTKQVF

peptide exchange yield (HLA-B*44 (human)): 20 to 50%
B14: … (peptide)
peptide: GEVSGLTKDF

peptide exchange yield (HLA-B*44 (human)): 50 to 75%
B20: … (peptide)
peptide: AEIQPQTQV

peptide exchange yield (HLA-B*44 (human)): 50 to 75%
B22: … (peptide)
peptide: AELDKLTSV

peptide exchange yield (HLA-B*44 (human)): 20 to 50%
B23: … (peptide)
peptide: TEGIIMKDF

peptide exchange yield (HLA-B*44 (human)): 50 to 75%
B24: … (peptide)
peptide: EENDQSTHKW

peptide exchange yield (HLA-B*44 (human)): 20 to 50%
B26: AENLFRAF (peptide)
peptide: AENLFRAF

peptide exchange yield (HLA-B*08 (human)): 50 to 75%
B27: … (peptide)
peptide: FNKRKPLSL

peptide exchange yield (HLA-B*44 (human)): 50 to 75%
B30: EEGRVYLF (peptide)
peptide: EEGRVYLF

peptide exchange yield (HLA-B*44 (human)): 50 to 75%
B31: … (peptide)
peptide: RELENCFQIQ

peptide exchange yield (HLA-B*08 (human)): > 75%
B33: … (peptide)
peptide: DIYQRALNL

peptide exchange yield (HLA-B*44 (human)): 50 to 75%
B34: … (peptide)
peptide: TEREWADEW

peptide exchange yield (HLA-B*08 (human)): > 75%
B35: LPFPKFTV (peptide)
peptide: LPFPKFTV

peptide exchange yield (HLA-B*44 (human)): > 75%
B36: … (peptide)
peptide: KEADIHFLI

peptide exchange yield (HLA-B*44 (human)): 50 to 75%
B39: … (peptide)
peptide: RELQHEHSL

peptide exchange yield (HLA-B*08 (human)): > 75%
B40: … (peptide)
peptide: ELKKLYCQI

peptide exchange yield (HLA-B*08 (human)): > 75%
B41: … (peptide)
peptide: RAQLKLVAL

peptide exchange yield (HLA-B*44 (human)): 50 to 75%
B43: … (peptide)
peptide: MEMQKSPVF

peptide exchange yield (HLA-B*08 (human)): > 75%
B45: MPMQDIKM (peptide)
peptide: MPMQDIKM

peptide exchange yield (HLA-B*08 (human)): 50 to 75%
B51: … (peptide)
peptide: VIKEKALTL

peptide exchange yield (HLA-B*44 (human)): 50 to 75%
B52: … (peptide)
peptide: AETPIQNVI

peptide exchange yield (HLA-B*44 (human)): 20 to 50%
B56: … (peptide)
peptide: GEFPVRVQV

peptide exchange yield (HLA-B*44 (human)): 50 to 75%
B57: … (peptide)
peptide: AEDQLHHSF
